Test results reported in article doi:10.1101/2021.01.26.428356, “Sequence signatures of two IGHV3-53/3-66 public clonotypes to SARS-CoV-2 receptor binding domain” (bioRxiv, 2021).

B1: COVA2-20 Fab, wild type (Y58) (Fab, V domains shown)
VH: EVQLVESGGGLIQPGGSLRLSCAASGFTVSSNYMSWVRQAPGKGLEWVSVIYSGGSTYYADSVKGRFTISRDNSKNTLYLQMNSLRAEDTAVYYCASPLLLTPPDYYYYMDVWGKGTMVTVSS
VL: DVVMTQSPSSLSVSVGDRVTITCRASQGIRNDLGWYQQKPGKAPKRLIYAASSLQSGVPSRFSGSGSGTEFTLTISSLQPEDFATYYCLQHNSYLWTFGQGTKLEIK
B2: COV107-23 Fab, wild type (F58) (Fab, V domains shown)
VH: EVQLVESGGGLIQPGGSLRLSCAASGFTVSSNYMSWVRQAPGKGLEWVSVIYSGGSTFYADSVKGRFTISRDNSKNTLYLQMNSLRAEDTAVYYCARDLGTGLFDYWGQGTLVTVSS
VL: DIQLTQSPSFLSASVGDRVTITCRASQGISSYLAWYQQKPGKAPKLLIYAASTLQSGVPSRFSGSGSGTEFTLTISSLQPEDFATYYCQQLDSYPPGTFGPGTKVDIK
notes: also called WT COV107-23; clonotype 1 antibody; source: Expi293F, transiently co-transfected, purified (CaptureSelect CH1-XL column)

Molecular target: T1, Fc-tagged receptor-binding domain (RBD) of the SARS-CoV-2 spike (S) protein (SARS-CoV-2, Wuhan-Hu-1 (GenBank …, UniProt P0DTC2))
T1 construct: also called SARS-CoV-2 RBD; SARS-CoV-2 S RBD-Fc; not shown: Fc, C-terminal, kept
Assay: BLI; Octet Red96e; Fc-tagged RBD loaded onto the biosensor (streptavidin biosensors as printed), Fab in solution; 1x PBS pH 7.4, 0.01% w/v BSA, 0.002% v/v Tween 20; 60 s association, 60 s dissociation; 1:1 binding model
Settings: both partners purified

Binder | binding result | Kd [nM]
B1 | binds | –
B2 | – | 1
